Results reported in US20260209373A1 (TIANJIN MEDICAL UNIVERSITY GENERAL HOSPITAL, published 2026).

T1: human BAFFR on HEK-293T-BAFFR cells (human, UniProt Q96RJ3 1-184)
T1 sequence: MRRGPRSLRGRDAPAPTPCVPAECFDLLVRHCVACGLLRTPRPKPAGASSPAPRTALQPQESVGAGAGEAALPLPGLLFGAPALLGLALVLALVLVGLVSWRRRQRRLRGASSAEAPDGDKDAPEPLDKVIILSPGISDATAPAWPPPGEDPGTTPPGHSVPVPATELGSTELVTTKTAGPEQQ

T2: human BAFFR-his protein (Acro, BAR-HP2H6) (human, UniProt Q96RJ3 7-71, limits assumed)
T2 construct: Bought protein; not shown: his tag
T2 sequence: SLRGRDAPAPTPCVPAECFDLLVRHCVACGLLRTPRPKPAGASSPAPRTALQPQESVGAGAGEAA


Key:
[1] = target: human BAFFR-his protein (Acro, BAR-HP2H6) (human) (UniProt Q96RJ3); test: competition ELISA; plate-coated human BAFFR-his, competitor biotin human BAFF his at 0.2 ug/mL
[2] = target: T1, human BAFFR on HEK-293T-BAFFR cells; test: cell-based or functional assay
[3] = target: T1, human BAFFR on HEK-293T-BAFFR cells; test: flow cytometry on HEK-293T-BAFFR cells, anti-human Fc-647 secondary
Protocol: The cells were resuspended in a suitable volume of staining solution for flow cytometry, so that the final cell concentration per tube reached 2×10⁵ cells/mL.
The antibodies NB467-55, NB467-46, NB467-35, and NB467-8 produced in Example 1, and Lanalumab were respectively diluted to 200 nM. […] After incubation, the cells were washed once with a FACS buffer.
The anti-human FC-647 secondary antibody (Jackson, 109-605-003) was diluted according to the instructions, and 100 μl of the diluted secondary antibody was added to a sample tube. After uniform mixing, the system was incubated at 4° C. for 60 min. After incubation, the cells were washed 3 times with FACS, and the cell precipitate obtained by centrifugation was resuspended in 200 μl of PBS and detected by flow cytometry (Sony, SA3800).

[4] = target: T2, human BAFFR-his protein (Acro, …); test: competition ELISA; plate-coated human BAFFR-his, competitor biotin human BAFF his at 0.2 ug/mL
Protocol: Specifically, human BAFFR-his protein (Acro, BAR-HP2H6) was added to a 96-well microplate at 200 ng/well and incubated at 4° C. overnight. On the following day, the plate was washed 3 times with PBST. Then the plate was blocked with 5% w/v skim milk in PBST at 37° C. for 1 h, and then washed with PBS.
The antibody to be tested was 1:3 diluted over gradients from a concentration of 800 nM (diluted with 5% skim milk). Biotin Human BAFF his protein (Acro, BAF-H82Q2) was diluted to 0.2 μg/mL. Control group: 50 μL of diluted Biotin Human BAFF his protein and 50 μL of 5% milk. Experimental group: 50 μL of diluted Biotin Human BAFF his protein and 50 μL of antibody diluted over gradients.
Then, the antibody/Biotin Human BAFF his mixture was added to a plate coated with Human BAFFR-his protein, and incubated at 37° C. for 1 h. The plate was washed 5 times with PBST. The secondary antibody (Chengdu NBbiolab Biotechnology Co., Ltd.) 1:10K diluted with a blocking solution was added and incubate at 37° C. for 1 h. The plate incubated with the secondary antibody was washed 5 times with PBST. 100 μl of a TMB monocomponent developing solution was added to each well, and incubated at 37° C. for 7 min. The reaction was terminated with 50 μL/well of 1 M HCL, and then the absorption value at 450 nm was determined. The median inhibition concentration (IC50 value) was obtained by analyzing the data with Graphpad Prism software.

| Molecule | IC50 [1] [nM] | EC50 (ng/ml), ADCC reporter assay (Jurkat-NFAT-CD16a luciferase) [2] [ng/mL] | EC50 [3] [nM] | IC50 [4] [nM] |
| --- | --- | --- | --- | --- |
| Lanalumab (antibody) | 310 | 56.5 | 3.58 | – |
| NB467-35 (Fc fusion, also called nanobody NB467-35; anti-BAFFR nanobody; not shown: Human IgG1 Fc fused to the VHH) QVQLVESGGGLVQPGGSLRLSCAASGFSLEYYAIGWFRQTPGKEREAISCIDSPAKSTYYADSVKGRFTISRDNSKNTVYLQMNSLKAEDTAVYYCAADVYYRGSYLYRSCNPTESKYWGQGTQVTVSS | – | 2.67 | 3.24 | 5.13 |
| NB467-8 (Fc fusion, also called nanobody NB467-8; anti-BAFFR nanobody; not shown: Human IgG1 Fc fused to the VHH) QVQLVESGGGLVQPGGSLRLSCAASGFSLEYYAIGWFRHIPGKEREAVSCISSPGDSTWYVDSVKGRFTISRDNAKNTVYLQMNSLKPEDTAVYHCAADVYYSGSYLSRSCNPHESKYWGQGTQVTVSS | – | 2.89 | 1.76 | 30.5 |

Now from value to molecule:

| IC50 [1] [nM] | EC50 (ng/ml), ADCC reporter assay (Jurkat-NFAT-CD16a luciferase) [2] [ng/mL] | EC50 [3] [nM] | IC50 [4] [nM] | Molecule |
| --- | --- | --- | --- | --- |
| – | 5.09 | 1.55 | 40.5 | NB467-55 (Fc fusion, also called nanobody NB467-55; anti-BAFFR nanobody; not shown: Human IgG1 Fc fused to the VHH) EVQVVESGGDLVQPGGSLKLSCQASGFSLTYYAIGWFRQAPGKEREEISCISGDGGMTYYADPVKGRFTISRDNGRNTVYLQMNSLKPEDTAVYYCAADVYYNGNYYSRSCNPAESKYWGQGTQVTVSA |
| – | 4.55 | 1.55 | 30.5 | NB467-46 (Fc fusion, also called nanobody NB467-46; anti-BAFFR nanobody; not shown: Human IgG1 Fc fused to the VHH) EVQVVESGGGLVQPGGSLRLSCAASGFSLTYYAIGWFRQAPGKEREGVACISGGGDQLYYTDSVKGRFTISRDNAKNTVYLHMNSLKPEDTAVYYCAADVYYSGSYNYRSCNPAESKYWGQGTQVTVSS |
